Test results reported in paper PMC2172650 (The Journal of Cell Biology, 2003).

Assays:
[1] = target: T1, h-β2 appendage (residues 700–937), 6xHis (human, UniProt P63010 700-937); assay: ITC
T1 sequence (looked up): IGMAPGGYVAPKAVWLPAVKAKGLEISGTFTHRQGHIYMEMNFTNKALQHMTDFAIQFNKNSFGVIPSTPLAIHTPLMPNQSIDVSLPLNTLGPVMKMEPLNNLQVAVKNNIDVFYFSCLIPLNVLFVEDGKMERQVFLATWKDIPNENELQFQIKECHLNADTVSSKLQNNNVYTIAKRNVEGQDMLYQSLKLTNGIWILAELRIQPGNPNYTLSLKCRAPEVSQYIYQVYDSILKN

[2] = target: T2, h-γ appendage (residues 704–822), 6xHis (human, UniProt O43747 704-822); assay: ITC
T2 sequence (looked up): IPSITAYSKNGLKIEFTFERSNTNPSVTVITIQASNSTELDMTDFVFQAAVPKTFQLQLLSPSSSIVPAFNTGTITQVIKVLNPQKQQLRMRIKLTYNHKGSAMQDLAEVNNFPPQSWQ

B1: epsinR N3 construct (291–426), GST cleaved (domain or fragment, human, UniProt Q14677 291-426, looked up)
chain: AHYTGDKASPDQNASTHTPQSSVKTSVPSSKSSGDLVDLFDGTSQSTGGSADLFGGFADFGSAAASGSFPSQVTATSGNGDFGDWSAFNQAPSGPVASSGEFFGSASQPAVELVSGSQSALGPPPAASNSSDLFDL
stoichiometry N [1]: 2 appendage domains per epsinR N3
stoichiometry N [2]: 2 appendage domains per epsinR N3
